Assay results as given in publication PMC3433420.
Several values for one entry are separate records, joined by “and”; a condition that tells them apart may be missing. Equal entries are not always repeated.

Assays:
ABL1 SH2 domain (human) = ABL1 SH2 domain (human) (UniProt P00519); assay: peptide or protein array; SH2/PTB proteins spotted on aldehyde slides, rhodamine peptide titrated in buffer B (20 mM HEPES, 100 mM KCl, 0.1% Tween-20, 5 mM DTT, pH 7.8), 1 h at room temperature; replicate assays
ABL2 SH2 domain (human) = ABL2 SH2 domain (human) (UniProt P42684); assay: as above
BLK SH2 domain (human) = BLK SH2 domain (human) (UniProt P51451); assay: as above
BLNK SH2 domain (human) = BLNK SH2 domain (human) (UniProt Q8WV28); assay: as above
BMX SH2 domain (human) = BMX SH2 domain (human) (UniProt P51813); assay: as above
CRK SH2 domain (human) = CRK SH2 domain (human) (UniProt P46108); assay: as above
CRKL SH2 domain (human) = CRKL SH2 domain (human) (UniProt P46109); assay: as above
GRB10 SH2 domain (human) = GRB10 SH2 domain (human) (UniProt Q13322); assay: as above
HCK SH2 domain (human) = HCK SH2 domain (human) (UniProt P08631); assay: as above
HSH2D SH2 domain (human) = HSH2D SH2 domain (human) (UniProt Q96JZ2); assay: as above
NCK2 SH2 domain (human) = NCK2 SH2 domain (human) (UniProt O43639); assay: as above
[1] = biological target: PIK3R2 tandem SH2 domains (human) (UniProt O00459); assay: as above
[2] = biological target: PIK3R3 tandem SH2 domains (human); assay: as above
[3] = biological target: PLCG2 tandem SH2 domains (human); assay: as above
[4] = biological target: SH2D1A SH2 domain (human) (UniProt O60880); assay: as above
[5] = biological target: SH2D3A SH2 domain (human) (UniProt Q9BRG2); assay: as above
[6] = biological target: SH3BP2 SH2 domain (human) (UniProt P78314); assay: as above
SHF SH2 domain (human) = SHF SH2 domain (human) (UniProt Q7M4L6); assay: as above
SRC SH2 domain (human) = SRC SH2 domain (human) (UniProt P12931); assay: as above
[7] = biological target: SYK N-terminal SH2 domain (human); assay: as above
[8] = biological target: SYK tandem SH2 domains (human); assay: as above
TNS4 SH2 domain (human) = TNS4 SH2 domain (human) (UniProt Q8IZW8); assay: as above
YES1 SH2 domain (human) = YES1 SH2 domain (human) (UniProt P07947); assay: as above
[9] = biological target: ZAP70 C-terminal SH2 domain (human) (UniProt P43403); assay: as above
GRAP2 SH2 domain (human) = GRAP2 SH2 domain (human) (UniProt O75791); assay: as above
LCK SH2 domain (human) = LCK SH2 domain (human) (UniProt P06239); assay: as above
NCK1 SH2 domain (human) = NCK1 SH2 domain (human) (UniProt P16333); assay: as above
[10] = biological target: PIK3R1 C-terminal SH2 domain (human); assay: as above
[11] = biological target: PTPN11 tandem SH2 domains (human); assay: as above
[12] = biological target: RASA1 C-terminal SH2 domain (human); assay: as above
[13] = biological target: RASA1 N-terminal SH2 domain (human) (UniProt P20936); assay: as above
SH2B3 SH2 domain (human) = SH2B3 SH2 domain (human) (UniProt Q9UQQ2); assay: as above
[14] = biological target: SH2D1B SH2 domain (human) (UniProt O14796); assay: as above
[15] = biological target: SH2D3C SH2 domain (human) (UniProt Q8N5H7); assay: as above
SHC3 SH2 domain (human) = SHC3 SH2 domain (human) (UniProt Q92529); assay: as above
[16] = biological target: ErbB3 Y789 non-phosphorylated peptide, rhodamine-labelled (human); assay: fluorescence polarisation; saturation binding in solution: rhodamine peptide fixed at 10 nM, protein titrated 0.002-10 uM, 20 min at room temperature; assay buffer 20 mM HEPES, 100 mM KCl, 0.1% Tween-20, 5 mM DTT, pH 7.8; apparent KD

BLK SH2 domain (human), sequence (P51451 124-220): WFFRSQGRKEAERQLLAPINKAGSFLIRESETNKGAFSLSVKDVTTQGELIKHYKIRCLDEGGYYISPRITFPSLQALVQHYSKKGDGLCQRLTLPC
ABL2 SH2 domain (human), sequence (P42684 173-263): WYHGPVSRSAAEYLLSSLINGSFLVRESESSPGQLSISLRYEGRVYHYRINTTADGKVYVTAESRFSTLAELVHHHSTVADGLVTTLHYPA
SH2D1A SH2 domain (human), sequence (O60880 6-104): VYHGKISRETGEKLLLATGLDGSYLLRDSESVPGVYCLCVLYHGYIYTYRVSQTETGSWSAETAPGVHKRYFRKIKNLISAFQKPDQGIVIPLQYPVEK
ZAP70 C-terminal SH2 domain (human), sequence (P43403 whole entry, the tested form may be a part): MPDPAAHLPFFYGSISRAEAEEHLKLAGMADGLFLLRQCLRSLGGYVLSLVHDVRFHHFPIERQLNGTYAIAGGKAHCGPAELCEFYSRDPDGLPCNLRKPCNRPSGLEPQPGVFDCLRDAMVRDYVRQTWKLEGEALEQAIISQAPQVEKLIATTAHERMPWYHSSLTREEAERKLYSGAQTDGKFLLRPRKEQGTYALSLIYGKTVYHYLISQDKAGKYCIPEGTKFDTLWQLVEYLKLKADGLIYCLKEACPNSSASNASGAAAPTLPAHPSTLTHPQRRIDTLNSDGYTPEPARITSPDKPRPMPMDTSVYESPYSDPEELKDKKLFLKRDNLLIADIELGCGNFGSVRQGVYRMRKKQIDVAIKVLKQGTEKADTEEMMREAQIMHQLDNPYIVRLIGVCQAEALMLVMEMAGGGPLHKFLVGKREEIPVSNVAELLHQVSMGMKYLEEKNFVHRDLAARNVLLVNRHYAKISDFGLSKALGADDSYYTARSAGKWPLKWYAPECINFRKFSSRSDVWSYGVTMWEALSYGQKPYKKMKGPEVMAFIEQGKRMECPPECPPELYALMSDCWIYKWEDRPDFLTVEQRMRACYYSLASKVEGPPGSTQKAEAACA
SH3BP2 SH2 domain (human), sequence (P78314 457-555): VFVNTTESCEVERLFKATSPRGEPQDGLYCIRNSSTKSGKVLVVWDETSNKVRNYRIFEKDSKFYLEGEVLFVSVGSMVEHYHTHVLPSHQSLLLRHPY
SH2D3A SH2 domain (human), sequence (Q9BRG2 15-114): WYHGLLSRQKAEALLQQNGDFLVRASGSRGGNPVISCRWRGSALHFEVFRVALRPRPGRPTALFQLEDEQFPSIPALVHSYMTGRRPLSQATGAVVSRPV
SH2D1B SH2 domain (human), sequence (O14796 5-101): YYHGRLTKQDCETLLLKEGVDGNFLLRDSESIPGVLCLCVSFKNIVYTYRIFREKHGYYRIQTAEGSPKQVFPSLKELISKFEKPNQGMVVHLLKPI
SHF SH2 domain (human), sequence (Q7M4L6 323-418): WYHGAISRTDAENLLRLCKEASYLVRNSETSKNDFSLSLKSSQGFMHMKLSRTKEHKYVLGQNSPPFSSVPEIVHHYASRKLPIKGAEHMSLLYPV
YES1 SH2 domain (human), sequence (P07947 158-255): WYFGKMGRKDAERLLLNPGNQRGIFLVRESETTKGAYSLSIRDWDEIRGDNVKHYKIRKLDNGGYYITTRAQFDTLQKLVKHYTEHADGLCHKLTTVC
HSH2D SH2 domain (human), sequence (Q96JZ2 34-125): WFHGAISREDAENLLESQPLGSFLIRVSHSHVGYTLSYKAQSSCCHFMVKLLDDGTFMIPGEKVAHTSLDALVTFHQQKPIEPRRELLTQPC
GRB10 SH2 domain (human), sequence (Q13322 493-574): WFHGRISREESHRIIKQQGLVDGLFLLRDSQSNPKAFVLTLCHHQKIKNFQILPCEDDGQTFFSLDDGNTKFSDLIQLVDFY
ABL1 SH2 domain (human), sequence (P00519 127-217): as the sequence (P42684 173-263) above, with S9N, L18G, L35R, T53A, A54S, V58L, T61S, A62S, S67N, V84I counted along it
BMX SH2 domain (human), sequence (P51813 296-392): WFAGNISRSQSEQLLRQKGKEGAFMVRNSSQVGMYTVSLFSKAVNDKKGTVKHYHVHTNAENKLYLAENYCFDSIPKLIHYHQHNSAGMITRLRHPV
BLNK SH2 domain (human), sequence (Q8WV28 346-453): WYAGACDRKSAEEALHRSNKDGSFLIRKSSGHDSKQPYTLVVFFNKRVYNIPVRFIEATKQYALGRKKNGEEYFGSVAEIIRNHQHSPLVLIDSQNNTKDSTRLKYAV
HCK SH2 domain (human), sequence (P08631 144-241): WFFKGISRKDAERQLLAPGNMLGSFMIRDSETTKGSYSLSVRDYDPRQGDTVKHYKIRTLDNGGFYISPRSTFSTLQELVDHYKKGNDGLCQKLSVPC
CRKL SH2 domain (human), sequence (P46109 14-102): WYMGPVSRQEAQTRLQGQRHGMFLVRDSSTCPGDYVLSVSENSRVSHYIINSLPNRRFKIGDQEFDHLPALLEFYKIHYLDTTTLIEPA
GRAP2 SH2 domain (human), sequence (O75791 58-149): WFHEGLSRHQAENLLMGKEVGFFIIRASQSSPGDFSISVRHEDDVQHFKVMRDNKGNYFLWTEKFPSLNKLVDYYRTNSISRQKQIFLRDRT
RASA1 N-terminal SH2 domain (human), sequence (P20936 whole entry, the tested form may be a part): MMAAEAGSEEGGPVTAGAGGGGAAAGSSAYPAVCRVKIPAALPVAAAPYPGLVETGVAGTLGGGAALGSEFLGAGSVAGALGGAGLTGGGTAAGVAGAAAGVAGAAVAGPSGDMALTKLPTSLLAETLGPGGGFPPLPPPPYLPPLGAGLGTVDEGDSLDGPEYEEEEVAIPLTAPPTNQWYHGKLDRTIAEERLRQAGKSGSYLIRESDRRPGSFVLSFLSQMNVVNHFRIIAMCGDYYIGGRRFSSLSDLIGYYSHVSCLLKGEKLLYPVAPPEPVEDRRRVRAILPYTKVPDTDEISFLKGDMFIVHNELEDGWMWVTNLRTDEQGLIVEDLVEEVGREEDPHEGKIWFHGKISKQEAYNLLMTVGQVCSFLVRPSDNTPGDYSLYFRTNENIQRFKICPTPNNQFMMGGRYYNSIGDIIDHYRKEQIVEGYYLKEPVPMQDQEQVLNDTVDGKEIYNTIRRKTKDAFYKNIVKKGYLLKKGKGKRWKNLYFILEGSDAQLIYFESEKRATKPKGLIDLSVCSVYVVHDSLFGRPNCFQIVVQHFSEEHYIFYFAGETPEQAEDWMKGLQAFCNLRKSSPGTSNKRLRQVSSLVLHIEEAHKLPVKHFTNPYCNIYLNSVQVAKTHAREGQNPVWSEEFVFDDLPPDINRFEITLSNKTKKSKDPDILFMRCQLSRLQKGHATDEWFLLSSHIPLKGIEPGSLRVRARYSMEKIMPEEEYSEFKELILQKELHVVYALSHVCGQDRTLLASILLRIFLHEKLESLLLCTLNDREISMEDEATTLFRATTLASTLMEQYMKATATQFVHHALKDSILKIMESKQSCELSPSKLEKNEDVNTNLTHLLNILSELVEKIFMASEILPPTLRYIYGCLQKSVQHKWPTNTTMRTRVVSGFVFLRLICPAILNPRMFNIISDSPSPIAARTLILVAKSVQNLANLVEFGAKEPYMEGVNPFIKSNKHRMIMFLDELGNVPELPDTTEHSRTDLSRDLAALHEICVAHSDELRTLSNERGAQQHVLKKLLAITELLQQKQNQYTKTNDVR
SH2B3 SH2 domain (human), sequence (Q9UQQ2 364-462): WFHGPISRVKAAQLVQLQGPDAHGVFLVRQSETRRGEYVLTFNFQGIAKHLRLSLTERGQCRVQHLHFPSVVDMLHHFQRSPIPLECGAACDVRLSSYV
NCK2 SH2 domain (human), sequence (O43639 285-380): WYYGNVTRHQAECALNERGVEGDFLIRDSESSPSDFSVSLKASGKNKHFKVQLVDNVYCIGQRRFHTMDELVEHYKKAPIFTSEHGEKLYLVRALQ
PIK3R2 tandem SH2 domains (human), sequence (O00459 whole entry, the tested form may be a part): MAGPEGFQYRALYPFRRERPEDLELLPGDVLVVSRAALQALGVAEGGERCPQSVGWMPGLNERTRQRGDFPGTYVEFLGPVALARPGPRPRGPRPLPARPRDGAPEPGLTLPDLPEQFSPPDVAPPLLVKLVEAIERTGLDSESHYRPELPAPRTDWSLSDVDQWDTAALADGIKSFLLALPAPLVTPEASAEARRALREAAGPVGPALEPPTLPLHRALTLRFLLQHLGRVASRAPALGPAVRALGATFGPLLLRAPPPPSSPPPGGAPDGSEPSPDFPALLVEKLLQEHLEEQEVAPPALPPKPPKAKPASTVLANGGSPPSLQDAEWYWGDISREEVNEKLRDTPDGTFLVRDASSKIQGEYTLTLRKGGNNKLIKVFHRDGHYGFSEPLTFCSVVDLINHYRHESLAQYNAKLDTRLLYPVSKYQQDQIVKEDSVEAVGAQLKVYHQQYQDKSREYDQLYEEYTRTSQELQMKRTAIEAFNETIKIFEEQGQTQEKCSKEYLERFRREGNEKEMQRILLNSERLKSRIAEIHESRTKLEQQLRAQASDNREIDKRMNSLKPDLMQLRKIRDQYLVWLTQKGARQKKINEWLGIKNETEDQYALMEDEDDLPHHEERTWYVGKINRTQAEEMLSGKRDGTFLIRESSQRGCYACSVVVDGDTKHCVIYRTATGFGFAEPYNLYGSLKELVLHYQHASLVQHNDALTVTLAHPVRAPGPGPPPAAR
LCK SH2 domain (human), sequence (P06239 127-224): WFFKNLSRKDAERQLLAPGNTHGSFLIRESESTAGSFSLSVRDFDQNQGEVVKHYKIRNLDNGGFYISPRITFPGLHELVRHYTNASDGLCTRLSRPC
CRK SH2 domain (human), sequence (P46108 13-118): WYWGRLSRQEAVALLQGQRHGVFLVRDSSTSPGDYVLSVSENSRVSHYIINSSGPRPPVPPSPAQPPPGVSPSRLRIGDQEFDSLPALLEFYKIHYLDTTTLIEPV
SH2D3C SH2 domain (human), sequence (Q8N5H7 220-319): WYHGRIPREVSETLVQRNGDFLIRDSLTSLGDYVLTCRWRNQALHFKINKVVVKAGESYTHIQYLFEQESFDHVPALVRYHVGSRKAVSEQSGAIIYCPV
SHC3 SH2 domain (human), sequence (Q92529 499-590): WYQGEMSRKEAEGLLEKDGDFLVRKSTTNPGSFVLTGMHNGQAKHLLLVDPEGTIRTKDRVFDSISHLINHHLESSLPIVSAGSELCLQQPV

## ErbB4 pY1221 phosphopeptide (18-mer), rhodamine-labelled, for protein microarrays
ABL1 SH2 domain (human)
  Kd: 0.25 µM
ABL2 SH2 domain (human)
  Kd: 0.906 µM and 0.283 µM
BLK SH2 domain (human)
  Kd: 1.15 µM and 1.16 µM and 0.583 µM
BLNK SH2 domain (human)
  Kd: 4 µM
BMX SH2 domain (human)
  Kd: 0.419 µM
CRK SH2 domain (human)
  Kd: 64.5 µM
CRKL SH2 domain (human)
  Kd: 0.107 µM
GRB10 SH2 domain (human)
  Kd: 0.234 µM
HCK SH2 domain (human)
  Kd: 0.07 µM
HSH2D SH2 domain (human)
  Kd: 0.994 µM
NCK2 SH2 domain (human)
  Kd: 0.211 µM
[1]
  Kd: 1.34 µM
[2]
  Kd: 0.544 µM
[3]
  Kd: 1.25 µM and 1.38 µM
[4]
  Kd: 0.766 µM
[5]
  Kd: 0.605 µM
[6]
  Kd: 2.36 µM and 10.9 µM and 1.24 µM
SHF SH2 domain (human)
  Kd: 1.19 µM
SRC SH2 domain (human)
  Kd: 0.443 µM
[7]
  Kd: 15.6 µM and 9.49 µM
[8]
  Kd: 0.811 µM and 1.29 µM and 0.285 µM
TNS4 SH2 domain (human)
  Kd: 0.323 µM
YES1 SH2 domain (human)
  Kd: 1.32 µM and 0.818 µM
[9]
  Kd: 0.791 µM

## ErbB4 pY733 phosphopeptide (18-mer), rhodamine-labelled, for protein microarrays
ABL2 SH2 domain (human)
  Kd: 1.37 µM and 1.73 µM and 0.268 µM
GRAP2 SH2 domain (human)
  Kd: 0.852 µM
GRB10 SH2 domain (human)
  Kd: 1.27 µM
HSH2D SH2 domain (human)
  Kd: 2.21 µM
LCK SH2 domain (human)
  Kd: 1.24 µM
NCK1 SH2 domain (human)
  Kd: 0.724 µM
[10]
  Kd: 0.438 µM
[2]
  Kd: 7.82 µM and 10.5 µM
[11]
  Kd: 0.177 µM
[12]
  Kd: 10.4 µM
[13]
  Kd: 0.685 µM
SH2B3 SH2 domain (human)
  Kd: 1.18 µM
[4]
  Kd: 0.823 µM and 1.61 µM and 1.68 µM
[14]
  Kd: 0.404 µM and 1.28 µM and 1.34 µM
[5]
  Kd: 0.603 µM and 0.79 µM and 0.912 µM
[15]
  Kd: 9.36 µM
SHC3 SH2 domain (human)
  Kd: 7.66 µM
SHF SH2 domain (human)
  Kd: 2.7 µM and 8.5 µM
[7]
  Kd: 3.04 µM and 3.45 µM and 0.803 µM
YES1 SH2 domain (human)
  Kd: 1.18 µM and 1.17 µM and 0.421 µM
[9]
  Kd: 1.53 µM and 1.52 µM and 0.404 µM

## PIK3R1 tandem SH2 domains (from UniProt P27986 1-724) (domain or fragment)
[16]
  Kd: 1.59 µM
